T1: IdeR (iron-dependent regulator) (Mycobacterium tuberculosis, UniProt P9WMH1 1-230)
T1 sequence: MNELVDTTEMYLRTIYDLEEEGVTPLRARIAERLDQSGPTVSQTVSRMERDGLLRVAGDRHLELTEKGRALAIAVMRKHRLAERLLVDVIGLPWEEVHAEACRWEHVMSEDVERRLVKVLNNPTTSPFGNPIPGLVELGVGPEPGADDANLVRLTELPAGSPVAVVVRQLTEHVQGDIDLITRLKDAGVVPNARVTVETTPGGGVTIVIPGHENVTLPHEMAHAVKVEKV

B1: DIP2161 motif (sidA) (dsDNA)
DNA 1: TTAGGGTAGGCTAATCCAA
DNA 2: TTGGATTAGCCTACCCTAA
B2: negative control motif (dsDNA)
DNA 1: TTTTCATGACGTCTTCTAA
DNA 2: TTAGAAGACGTCATGAAAA
B3: DIP0586 motif (iucA) (dsDNA)
DNA 1: TTAGGGTAGCTTCGCCTAA
DNA 2: TTAGGCGAAGCTACCCTAA
B4: DIP2272 motif (sortase) (dsDNA)
DNA 1: TGTGGGCACACCAACCTAA
DNA 2: TTAGGTTGGTGTGCCCACA
B5: DIP2304 motif (FpG) (dsDNA)
DNA 1: TTGGGGTGGCCTATCCTTA
DNA 2: TAAGGATAGGCCACCCCAA
B6: DIP0699 motif (secA) (dsDNA)
DNA 1: TTGTGTTAGCCTAGGCTAA
DNA 2: TTAGCCTAGGCTAACACAA

The binders below were run against T1, IdeR (iron-dependent regulator) (assay: EMSA; 200 uM Mn2+; 30 pmol IdeR). Conditions: protein: recombinant; tags: 6xHis (pRSET vector); chain copies: 4; label: 32P end label; blunt.

Does B1 bind?
Result: binds

Does B2 bind?
Result: no binding

Does B3 bind?
Result: binds

Does B4 bind?
Result: binds

Does B5 bind?
Result: binds

Does B6 bind?
Result: binds

Source: article PMC524172, “Yellaboina Sailu 1 sailu@cdfd.org.in”
